Data as given in US20110071077A1, “Thrombopoietic Compounds” (AMGEN INC., priority 2006, published 2011).
Bridge positions count the residues as written; N and C are the ends. Ends that are not written are not given here. PEG = not defined here

Assays:
human mpl receptor = molecular target: T1, human mpl receptor (Homo sapiens, UniProt P40238); test: TPO in vitro bioassay, mitogenic assay in IL-3 dependent murine 32D cells; assay type: cell-based; settings: for Relative Potency: in terms of EC50, numerals indicate approximately 1 log of activity
T1 construct: IL-3 dependent clone of murine 32D cells transfected with the full-length c-Mpl; expressed in transfected cells; host or cells: IL-3 dependent clone of murine 32D cells
T1 sequence (P40238 26-635): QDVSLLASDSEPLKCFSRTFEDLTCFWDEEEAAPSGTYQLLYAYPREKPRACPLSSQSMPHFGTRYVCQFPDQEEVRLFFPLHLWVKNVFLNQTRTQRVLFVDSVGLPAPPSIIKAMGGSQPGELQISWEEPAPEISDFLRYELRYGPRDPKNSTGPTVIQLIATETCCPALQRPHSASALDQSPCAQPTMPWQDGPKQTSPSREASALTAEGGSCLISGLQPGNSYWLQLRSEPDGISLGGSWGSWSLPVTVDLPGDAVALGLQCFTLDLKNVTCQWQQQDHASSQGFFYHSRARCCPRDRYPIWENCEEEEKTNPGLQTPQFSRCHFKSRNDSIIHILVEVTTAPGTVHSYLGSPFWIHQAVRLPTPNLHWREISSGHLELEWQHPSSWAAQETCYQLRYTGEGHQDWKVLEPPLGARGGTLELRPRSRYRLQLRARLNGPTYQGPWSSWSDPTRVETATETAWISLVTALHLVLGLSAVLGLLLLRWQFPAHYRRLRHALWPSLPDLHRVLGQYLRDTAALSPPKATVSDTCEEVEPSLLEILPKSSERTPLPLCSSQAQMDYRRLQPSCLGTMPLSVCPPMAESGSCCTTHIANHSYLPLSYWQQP
Description: Bioactivity assay. The TPO in vitro bioassay is a mitogenic assay utilizing an IL-3 dependent clone of murine 32D cells that have been transfected with human mpl receptor. This assay is described in greater detail in WO 95/26746. Cells are maintained in MEM medium containing 10% Fetal Clone II and 1 ng/ml mIL-3. Prior to sample addition, cells are prepared by rinsing twice with growth medium lacking mIL-3. An extended twelve point TPO standard curve is prepared, ranging from 3333 to 39 pg/ml. Four dilutions, estimated to fall within the linear portion of the standard curve, (1000 to 125 pg/ml), are prepared for each sample and run in triplicate. A volume of 100 μl of each dilution of sample or standard is added to appropriate wells of a 96 well microtiter plate containing 10,000 cells/well. After forty-four hours at 37° C. and 10% CO2, MTS (a tetrazolium compound which is bioreduced by cells to a formazan) is added to each well. Approximately six hours later, the optical density is read on a plate reader at 490 nm. A dose response curve (log TPO concentration vs. O.D.-Background) is generated and linear regression analysis of points which fall in the linear portion of the standard curve is performed. Concentrations of unknown test samples are determined using the resulting linear equation and a correction for the dilution factor. […]

c-Mpl receptor = molecular target: T2, c-Mpl receptor (Homo sapiens, UniProt P40238); settings: cited from earlier work
T2 sequence (P40238 26-635): T1 sequence (P40238 26-635)

c-Mpl = molecular target: T3, c-Mpl (Homo sapiens, UniProt P40238); settings: cited from earlier work
T3 sequence (P40238 26-491 limits assumed): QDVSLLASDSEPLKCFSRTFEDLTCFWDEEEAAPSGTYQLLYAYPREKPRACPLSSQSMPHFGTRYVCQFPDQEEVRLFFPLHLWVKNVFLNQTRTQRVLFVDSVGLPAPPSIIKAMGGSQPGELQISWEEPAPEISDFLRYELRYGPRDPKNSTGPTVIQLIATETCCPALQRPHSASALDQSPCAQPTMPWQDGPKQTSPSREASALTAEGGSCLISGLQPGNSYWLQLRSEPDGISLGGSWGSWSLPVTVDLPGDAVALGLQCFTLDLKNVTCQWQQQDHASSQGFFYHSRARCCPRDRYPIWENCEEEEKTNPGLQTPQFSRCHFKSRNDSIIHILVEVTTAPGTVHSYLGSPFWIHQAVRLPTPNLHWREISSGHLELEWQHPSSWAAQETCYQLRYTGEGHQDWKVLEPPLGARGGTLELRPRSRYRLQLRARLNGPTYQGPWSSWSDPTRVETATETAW

Normal female BDF1 mice = test: platelets in mice, 7-day micro-osmotic pumps; assay type: in vivo
Description: Mice. Normal female BDF1 approximately 10-12 weeks of age.
Bleed schedule. Ten mice per group treated on day 0, two groups started 4 days apart for a total of 20 mice per group. Five mice bled at each time point, mice were bled a minimum of three times a week. Mice were anesthetized with isoflurane and a total volume of 140-160 μl of blood was obtained by puncture of the orbital sinus. Blood was counted on a Technicon H1E blood analyzer running software for murine blood. Parameters measured were white blood cells, red blood cells, hematocrit, hemoglobin, platelets, neutrophils.
Treatments. Mice were either injected subcutaneously for a bolus treatment or implanted with 7 day micro-osmotic pumps for continuous delivery. Subcutaneous injections were delivered in a volume of 0.2 ml. Osmotic pumps were inserted into a subcutaneous incision made in the skin between the scapulae of anesthetized mice. Compounds were diluted in PBS with 0.1% BSA. All experiments included one control group, labeled “carrier” that were treated with this diluent only. The concentration of the test articles in the pumps was adjusted so that the calibrated flow rate from the pumps gave the treatment levels indicated in the graphs.
Compounds. A dose titration of the compound was delivered to mice in 7 day micro-osmotic pumps. Mice were treated with various compounds at a single dose of 100 ug/kg in 7 day osmotic pumps. Some of the same compounds were then given to mice as a single bolus injection.

Row | Substance | in vitro bioactivity in words (human mpl receptor) | Relative Potency (human mpl receptor) | also measured
1 | IEGPTLRQALAARA-GGGGGGGG-IEGPTLRQALAARA (IEGPTLRQALAARAGGGGGGGGIEGPTLRQALAARA) [peptide 16] | inactive | 0.5 | –
2 | IEGPTLRQCLAARA-GGGGGGGG-IEGPTLRQCLAARA (IEGPTLRQCLAARAGGGGGGGGIEGPTRLQCLAARA) [compound 15] | inactive | 0.5 | –
3 | IEGPTLRQWLAARA [TMP monomer, 14-residue TPO Mimetic Peptide (Cwirla et al.)] | – | 1.0 | EC50 (c-Mpl receptor): 400 nM; IC50 (c-Mpl): 2 nM
4 | IEGPTLRQWLAARAARAALWQRLTPGEI [TMP C-C dimer, reference compound] | lower than that of the native TPO protein | 3.5 | EC50 (c-Mpl receptor): 0.1 nM; binding affinity (c-Mpl): 0.5 nM
5 | TMP-GGGC(PEG)GGGG-TMP (IEGPTLRQWLAARAGGGC(PEG)GGGGIEGPTLRQWLAARA; reading uncertain) [peptide 20] | even higher in vitro bioactivity as compared to their unpegylated counterparts | 5.0 | activity compared with unpegylated rHu-MGDF (Normal female BDF1 mice; 10 μg/kg/day): about equally active as 100 μg/kg/day unpegylated rHu-MGDF; activity relative to maximum (Normal female BDF1 mice; 10 μg/kg/day): about 50%; dose of maximum effect (Normal female BDF1 mice; dose response, data not shown): 100 µg/kg/day; lowest dose at which activity could be seen (Normal female BDF1 mice; mouse, in vivo): 1 µg/kg/day
6 | TMP-GGGCGGGG-TMP (IEGPTLRQWLAARAGGGCGGGGIEGPTLRQWLAARA) [peptide 18] | – | 4.0 | –
7 | TMP-GGGK(PEG)GGGG-TMP (IEGPTLRQWLAARAGGGK(PEG)GGGGIEGPTLRQWLAARA; reading uncertain) [peptide 19] | even higher in vitro bioactivity as compared to their unpegylated counterparts | 5.0 | –
8 | TMP-GGGKGGGG-TMP (IEGPTLRQWLAARAGGGKGGGGIEGPTLRQWLAARA) [peptide 17a] | – | 4.0 | –
9 | TMP-GGGNGSGG-TMP (IEGPTLRQWLAARAGGGNGSGGIEGPTLRQWLAARA) [compound 21] | activity comparable to that of the -(Gly)8- linked analog | 4.0 | –
10 | TMP-GPNG-TMP (IEGPTLRQWLAARAGPNGIEGPTLRQWLAARA) [peptide 13] | – | 3.0 | increase in potency as compared to the monomer (human mpl receptor): about 100 fold
11 | TPO: native TPO protein, endogenous thrombopoietin | – | 4.0 | –
12 | peptide 14: Trp in each TMP monomer replaced with Cys, intramolecular disulfide bond between the two cysteines (IEGPTLRQCLAARAGGGGGGGGIEGPTLRQCLAARA; disulfide 9-31) | inactive | 0.5 | –
